Test [1] addresses LTβR on human tumor cells (SKBR-3, HT29) (human, UniProt P36941 31-435). The experiment in a line: cell-based or functional assay.
Test [2] deals with T1, HVEM-Ig (species not stated).
T1 construct: also called HVEM-Fc
In words: ELISA (Table 2; species of HVEM not given). The method, then: (§1) Human and murine ErbB2-Fc were obtained from R&D Systems. Wells of 96-well plates were coated with 2 ug/ml or 0.2 ug/ml of human or murine HER2-Fc by incubation overnight at 4-8° C. with either of these six proteins (80 ul/well of a 0.2 or 2 ug/ml solution in PBS). Wells were emptied, filled completely with a solution of PBS with 1% BSA (blocking buffer) and incubated at room temperature for 1 hour. Wells were emptied, washed twice PBS containing 0.05% Tween 20 (PBST) and filled with the samples (80 ul/well of 3× dilution series of the standard and supernatants in blocking buffer) prepared in another 96-well plate. After a 2-hour incubation at room temperature, the wells were emptied, washed three times with PBST and filled with a solution of HRP-conjugated goat pAbs anti-human kappa chain (80 ul/well of a 2000-fold dilution in blocking buffer). After 1-hour incubation, the wells were emptied and filled with a solution of HRP substrate prepared freshly. The color was left to develop for 3 minutes and was stopped by addition of an equal volume of 1N H₂SO₄. Absorbance was measured at 450 nm using a Plate Reader (SpectraMax, Molecular Devices). The data was processed and graphs were created using SoftMax Pro software.
Human and murine HVEM-Ig were expressed and purified in house.
Background: An ELISA detects its analyte on a solid surface through an enzyme-linked reagent.

For test [3], the target named is T2, HER2-Fc (species not stated).
T2 construct: probably human
In words: ELISA (Table 2; species of Her2 not given). On the procedure:
as §1

Test [4] addresses T3, LTβR-Ig (species not stated).
T3 construct: also called LTβR-human Fc fusion
In words: ELISA (Table 2; species of LTbR not given). The method, then:
as §1
Human and murine LTBR-Ig were expressed and purified in house.

Test [5] deals with T4, human HER2/ErbB2, full length, on cells (human, UniProt P04626 23-1255).
T4 construct: whole, on cells; also called hHER2/ErbB2; wild type HER2/ErbB
In words: FACS (Table 2; cells not given, Examples 14-16 use SKBR3 or CHO/hHER2).

Test [6] deals with T1, HVEM-Ig (species not stated). The experiment in a line: FACS (Table 2; format not given, Example 16 detects HVEM-Fc on cell-bound fusion).
For test [7], the target named is T3, LTβR-Ig (species not stated). In words: FACS (Table 2; format not given, Example 16 detects LTbR-Ig on cell-bound fusion).
T3 sequence (P36941 31-227): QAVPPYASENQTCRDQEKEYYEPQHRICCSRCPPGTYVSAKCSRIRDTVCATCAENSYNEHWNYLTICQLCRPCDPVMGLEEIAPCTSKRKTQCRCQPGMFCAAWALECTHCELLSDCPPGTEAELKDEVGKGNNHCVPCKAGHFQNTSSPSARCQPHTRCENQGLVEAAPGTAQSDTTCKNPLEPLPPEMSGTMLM
The target in test [8] is T2, HER2-Fc (species not stated). The experiment in a line: biolayer interferometry (Octet), receptor Fc fusion on anti-human Fc sensor, culture supernatant. On the procedure: (§2) Anti-human Fc-specific biosensors (Fortebio SKU 18-0001) were hydrated in OB (1×PBS supplemented with 1 mg/ml BSA, 0.05% NaN₃, and 0.02% TWEEN 20) for at least five minutes prior to assays. For each assay, the respective receptor Fc fusion was diluted to 10 μg/ml in OB and allowed to bind to the biosensors for five minutes. The sensors were then incubated in the indicated culture supernatant for an additional five minutes, and subsequently transferred to fresh wells […].
On the technique in general: In BLI a coated tip is dipped into the sample, and binding shifts an interference pattern.

Test [9] has as its target T3, LTβR-Ig (species not stated). The test is described as above. The method, then:
as §2

For test [10], the target named is T1, HVEM-Ig (species not stated). Described as above. On the procedure: as §2
For test [11], the target named is T5, human HER2-Fc (human, UniProt P04626 23-652).
T5 construct: extracellular domain; Homodimeric fusion protein from R&D Systems; also called human ErbB2-Fc; rhErbB2-Fc; not shown: Fc fragment of human IgG1
The experiment in a line: ELISA on coated huHER2-Fc, detection anti-human kappa-HRP; value is C (midpoint) of the printed 4-P fit; x axis Fab equivalent concentration.

For test [12], the target named is T6, murine HER2-Fc (mouse; human, UniProt P70424 23-653).
T6 construct: extracellular domain; Homodimeric fusion protein from R&D Systems; also called murine ErbB2-Fc; not shown: Fc fragment of human IgG1
T6 sequence (P70424 23-653): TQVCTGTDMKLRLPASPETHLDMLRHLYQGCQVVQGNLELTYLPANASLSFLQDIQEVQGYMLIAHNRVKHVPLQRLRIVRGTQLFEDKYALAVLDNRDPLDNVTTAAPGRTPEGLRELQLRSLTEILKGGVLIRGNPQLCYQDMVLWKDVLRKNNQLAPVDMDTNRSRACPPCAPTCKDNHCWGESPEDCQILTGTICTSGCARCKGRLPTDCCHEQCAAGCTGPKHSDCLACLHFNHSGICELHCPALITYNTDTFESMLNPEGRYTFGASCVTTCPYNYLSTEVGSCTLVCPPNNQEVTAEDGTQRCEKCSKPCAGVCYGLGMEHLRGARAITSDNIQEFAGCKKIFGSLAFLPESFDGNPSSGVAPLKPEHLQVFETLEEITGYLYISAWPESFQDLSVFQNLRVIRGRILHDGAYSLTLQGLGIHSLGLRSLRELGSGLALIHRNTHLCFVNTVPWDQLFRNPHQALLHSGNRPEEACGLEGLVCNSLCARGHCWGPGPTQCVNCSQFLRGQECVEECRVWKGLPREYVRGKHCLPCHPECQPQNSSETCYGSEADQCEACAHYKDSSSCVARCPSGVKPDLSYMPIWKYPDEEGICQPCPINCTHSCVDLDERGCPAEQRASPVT
In words: ELISA on coated muHER2-Fc, detection anti-human kappa-HRP; value is C (midpoint) of the printed 4-P fit; x axis Fab equivalent concentration.

The target in test [13] is Soluble human LTBR (shuLTBR) (human, UniProt P36941 31-227, limits assumed). The experiment in a line: SEC / light scattering. The method, then:
Soluble human LTBR (shuLTBR) was prepared by limited proteolytic digestion of human LTBR-Ig and purified by chromatography on protein A Sepharose and Fractogel TMAE. […] Controls with each protein were also included. The samples were analyzed by SEC using a […] column (Phenomenex) in PBS with a Waters Alliance HPLC instrument.

Several values for one entry are separate records, joined by “and”; a condition that tells them apart may be missing. Identical values can stand only once.

As a reminder, the EC50 is the concentration that produces a half-maximal response. A word on the koff: it is the rate constant with which the complex falls apart. Lower therefore signals slow dissociation.

LTβR on human tumor cells (SKBR-3, HT29), sequence (P36941 31-435): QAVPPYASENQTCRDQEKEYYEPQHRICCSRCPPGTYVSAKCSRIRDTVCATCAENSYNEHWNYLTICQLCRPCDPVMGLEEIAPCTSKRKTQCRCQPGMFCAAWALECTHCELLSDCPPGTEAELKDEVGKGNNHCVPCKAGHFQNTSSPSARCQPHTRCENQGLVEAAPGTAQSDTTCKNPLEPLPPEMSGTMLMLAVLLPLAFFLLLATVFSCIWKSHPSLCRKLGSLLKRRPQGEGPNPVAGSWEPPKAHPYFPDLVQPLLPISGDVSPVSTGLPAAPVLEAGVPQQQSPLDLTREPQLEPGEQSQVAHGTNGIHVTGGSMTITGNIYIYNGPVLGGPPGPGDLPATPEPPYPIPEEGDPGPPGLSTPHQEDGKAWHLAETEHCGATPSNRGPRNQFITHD
T1 sequence (Q92956 39-202): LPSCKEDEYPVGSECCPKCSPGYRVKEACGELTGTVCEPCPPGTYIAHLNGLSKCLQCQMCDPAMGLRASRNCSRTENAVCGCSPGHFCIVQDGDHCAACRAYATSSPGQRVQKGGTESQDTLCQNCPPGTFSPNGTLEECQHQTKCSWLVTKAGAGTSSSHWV
Soluble human LTBR (shuLTBR), sequence (P36941 31-227 limits assumed): as the sequence (P36941 31-227) above

B1: 71F10 Fab-hLIGHT fusion with the delta 4 linker (BIIB71F10-130) (other)
heavy: EVQLLESGGGLVQPGGSLRLSCAASGFTFSSYGMVWVRQAPGKGLEWVSSISSSGGLTWYADSVKGRFTISRDNSKNTLYLQMNSLRAEDTAVYYCASPPGIAVARDYWGQGTLVTVSSASTKGPSVFPLAPSSKSTSGGTAALGCLVKDYFPEPVTVSWNSGALTSGVHTFPAVLQSSGLYSLSSVVTVPSSSLGTQTYICNVNHKPSNTKVDKKVEPKSCDKLHWRLGEMVTRLPDGPAGSWQERRSHEVNPAAHLTGANSSLTGSGGPLLWETQLGLAFLRGLSYHDGALVVTKAGYYYIYSKVQLGGVGCPLGLASTITHGLYKRTPRYPEELELLVSQQSPCGRATSSSRVWWDSSFLGGVVHLEAGEEVVVRVLDERLVRLRDGTRSYFGAFMV
light: DIQMTQSPSSLSASVGDRVTITCRASQGISNYLAWYQQKPGKVPKLLIYAASTLQSGVPSRFSGSGSGTDFTLTISSLQPEDVATYYCQKYNSALLTFGGGTKVEIKRTVAAPSVFIFPPSDEQLKSGTASVVCLLNNFYPREAKVQWKVDNALQSGNSQESVTEQDSKDSTYSLSSTLTLSKADYEKHKVYACEVTHQGLSSPVTKSFNRGEC
modifications: Assembles as a trimer of heavy/light pairs; one pair is given.
notes: Fab heavy chain fused to human LIGHT extracellular portion; assembles as a trimer (66 kDa x3); also called pBIIB71F10-130; 71F10 Fab-Δ4huLIGHT
On to B1, for which, in [1], the “CCL2 (MCP-1) transcript, fold difference test/control, HT29 cells, quantitative RT-PCR” value was 1050 fold; the “CCL5 (RANTES) transcript, fold difference test/control, HT29 cells, quantitative RT-PCR” value stood at 1220 fold; the “CCL7 (MCP-3) transcript, fold difference test/control, HT29 cells, quantitative RT-PCR” value is -527 fold; the “CCL21 transcript, fold difference test/control, HT29 cells, quantitative RT-PCR” value turned out to be 546 fold. For the same molecule, in test [1], the “CCR4 transcript, fold difference test/control, HT29 cells, quantitative RT-PCR” value amounted to 1650 fold; the “CXCL2 transcript, fold difference test/control, HT29 cells, quantitative RT-PCR” value came to 1130 fold; the “CXCL3 transcript, fold difference test/control, HT29 cells, quantitative RT-PCR” value amounted to 1090 fold; the “CXCL5 (ENA-78/LIX) transcript, fold difference test/control, HT29 cells, quantitative RT-PCR” value came out at 1810 fold. In test [1], the “CXCL9 transcript, fold difference test/control, HT29 cells, quantitative RT-PCR” value was 675 fold; the “CXCL10 (IP-10) transcript, fold difference test/control, HT29 cells, quantitative RT-PCR” value was found to be 5270 fold; the “CXCL11 (I-TAC/IP9) transcript, fold difference test/control, HT29 cells, quantitative RT-PCR” value came to 1730 fold; the “IFNA2 transcript, fold difference test/control, HT29 cells, quantitative RT-PCR” value is 193 fold. For the same molecule, in test [1], the “IL5 transcript, fold difference test/control, HT29 cells, quantitative RT-PCR” value was 940 fold; the “IL8 transcript, fold difference test/control, HT29 cells, quantitative RT-PCR” value was determined as 373 fold; the “IL10RA transcript, fold difference test/control, HT29 cells, quantitative RT-PCR” value is 3440 fold; the “LTB transcript, fold difference test/control, HT29 cells, quantitative RT-PCR” value amounted to 2910 fold. Also, in test [1], the “TNF transcript, fold difference test/control, HT29 cells, quantitative RT-PCR” value is 7370 fold. Also, in test [2], the half-maximal effective concentration (EC50) was determined as 0.01 nM. The EC50 in [3] worked out at 0.05 nM. This molecule showed a half-maximal effective concentration (EC50) in [4] of 0.01 nM. The molecule also showed an EC50 in test [5] of 0.5 nM. In test [6], the EC50 came out at 0.5 nM. Also, the response in test [7] was half-maximal at 0.2 nM (EC50). Further, the off-rate (koff) in test [8] amounted to 0.000112 s⁻¹. The molecule also displayed an off-rate constant (koff) in [9] of 0.000168 s⁻¹. In addition, the koff in test [10] came out at 0.000122 s⁻¹. In addition, in [11], the concentration for a half-maximal effect (EC50) stood at 0.00955 µg/mL. Further, in test [12], the concentration giving a half-maximal response (EC50) was 0.0114 µg/mL.

B2: 71F10 Fab-hLIGHT fusion with the (G4S)4 linker (BIIB71F10-132) (other)
heavy: EVQLLESGGGLVQPGGSLRLSCAASGFTFSSYGMVWVRQAPGKGLEWVSSISSSGGLTWYADSVKGRFTISRDNSKNTLYLQMNSLRAEDTAVYYCASPPGIAVARDYWGQGTLVTVSSASTKGPSVFPLAPSSKSTSGGTAALGCLVKDYFPEPVTVSWNSGALTSGVHTFPAVLQSSGLYSLSSVVTVPSSSLGTQTYICNVNHKPSNTKVDKKVEPKSCDKGGGGSGGGGSGGGGSGGGGSNPAAHLTGANSSLTGSGGPLLWETQLGLAFLRGLSYHDGALVVTKAGYYYIYSKVQLGGVGCPLGLASTITHGLYKRTPRYPEELELLVSQQSPCGRATSSSRVWWDSSFLGGVVHLEAGEEVVVRVLDERLVRLRDGTRSYFGAFMV
light: DIQMTQSPSSLSASVGDRVTITCRASQGISNYLAWYQQKPGKVPKLLIYAASTLQSGVPSRFSGSGSGTDFTLTISSLQPEDVATYYCQKYNSALLTFGGGTKVEIKRTVAAPSVFIFPPSDEQLKSGTASVVCLLNNFYPREAKVQWKVDNALQSGNSQESVTEQDSKDSTYSLSSTLTLSKADYEKHKVYACEVTHQGLSSPVTKSFNRGEC
notes: Fab heavy chain fused to human LIGHT extracellular portion; assembles as a trimer; also called 71F10 Fab-(G4S)4-LIGHT
As for B2, the “stoichiometry (shuLTBR per Fab-Light trimer)” value in test [13] is 2 shuLTBR per trimer and 3 shuLTBR per trimer.

(Values after patent publication US20100119511A1 (Biogen, published 2010).)
